# Measured values as given in patent publication US9683053B2 (Glenmark Pharmaceuticals S.A., dated 2017).
# How the values were obtained:
# Experiment in all cases: co-expression, protein-A, scanning densitometry of non-reduced SDS-PAGE
# [1] = molecular target: VL-BT beta chain (Artificial Sequence)
# [2] = molecular target: VH(anti-hCD19)-CH13-BT beta c-myc_VL(anti-hCD19)-CK3 molecule (half-molecule) (Artificial Sequence)
# [3] = molecular target: VH(anti-hCD19)-CH1 delta-BT beta c-myc_VL(anti-hCD19)-CK gamma molecule (half-molecule) (Artificial Sequence)
# [4] = molecular target: VL-BT beta F405A chain (Artificial Sequence)
# Chain of VL-BT beta F405A chain (Artificial Sequence) (chain, as listed by the source F405A F405A): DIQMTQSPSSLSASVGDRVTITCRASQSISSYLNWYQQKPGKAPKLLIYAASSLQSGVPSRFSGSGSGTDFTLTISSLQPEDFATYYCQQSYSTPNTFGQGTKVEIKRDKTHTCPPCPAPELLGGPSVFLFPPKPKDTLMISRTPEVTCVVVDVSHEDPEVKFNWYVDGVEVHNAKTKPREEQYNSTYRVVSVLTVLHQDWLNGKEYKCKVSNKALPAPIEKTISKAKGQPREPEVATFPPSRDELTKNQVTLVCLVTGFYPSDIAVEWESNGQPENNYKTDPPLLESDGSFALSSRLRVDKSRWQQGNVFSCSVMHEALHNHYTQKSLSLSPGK
# Chain of VH(anti-hCD19)-CH13-BT beta c-myc_VL(anti-hCD19)-CK3 molecule (half-molecule) (Artificial Sequence) (heavy, as listed by the source, chain 1 of 2): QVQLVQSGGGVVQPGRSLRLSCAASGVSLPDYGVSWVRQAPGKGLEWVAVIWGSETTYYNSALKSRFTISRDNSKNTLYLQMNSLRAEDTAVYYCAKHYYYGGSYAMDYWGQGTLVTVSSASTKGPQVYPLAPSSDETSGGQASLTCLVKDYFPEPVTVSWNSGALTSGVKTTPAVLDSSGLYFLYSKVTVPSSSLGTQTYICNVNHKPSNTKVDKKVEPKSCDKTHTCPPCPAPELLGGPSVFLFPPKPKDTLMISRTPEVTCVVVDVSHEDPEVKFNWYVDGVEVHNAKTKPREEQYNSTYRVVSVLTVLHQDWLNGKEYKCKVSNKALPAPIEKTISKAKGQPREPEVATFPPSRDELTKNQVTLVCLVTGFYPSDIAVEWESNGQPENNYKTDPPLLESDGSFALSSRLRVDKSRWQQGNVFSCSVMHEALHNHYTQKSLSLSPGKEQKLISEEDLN
# Chain of VH(anti-hCD19)-CH13-BT beta c-myc_VL(anti-hCD19)-CK3 molecule (half-molecule) (Artificial Sequence) (light, as listed by the source, chain 2 of 2): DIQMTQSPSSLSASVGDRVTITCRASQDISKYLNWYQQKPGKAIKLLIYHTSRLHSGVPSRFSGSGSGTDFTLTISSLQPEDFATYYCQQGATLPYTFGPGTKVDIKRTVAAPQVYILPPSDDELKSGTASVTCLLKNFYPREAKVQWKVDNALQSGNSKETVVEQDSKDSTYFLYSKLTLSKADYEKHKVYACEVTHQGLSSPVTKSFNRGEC
# Chain of VH(anti-hCD19)-CH1 delta-BT beta c-myc_VL(anti-hCD19)-CK gamma molecule (half-molecule) (Artificial Sequence) (heavy, as listed by the source, chain 1 of 2): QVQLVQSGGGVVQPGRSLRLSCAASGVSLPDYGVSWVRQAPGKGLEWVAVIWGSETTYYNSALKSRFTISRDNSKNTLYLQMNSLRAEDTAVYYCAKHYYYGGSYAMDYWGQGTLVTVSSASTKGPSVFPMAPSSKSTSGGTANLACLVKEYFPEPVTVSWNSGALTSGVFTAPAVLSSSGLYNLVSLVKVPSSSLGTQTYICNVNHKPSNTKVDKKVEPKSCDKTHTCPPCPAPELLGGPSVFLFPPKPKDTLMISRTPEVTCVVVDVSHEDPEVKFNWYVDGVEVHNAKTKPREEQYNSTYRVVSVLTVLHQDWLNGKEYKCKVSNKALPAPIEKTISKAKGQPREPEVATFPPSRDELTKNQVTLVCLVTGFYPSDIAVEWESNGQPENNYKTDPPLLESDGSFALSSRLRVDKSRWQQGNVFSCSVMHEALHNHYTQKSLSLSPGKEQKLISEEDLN
# Chain of VH(anti-hCD19)-CH1 delta-BT beta c-myc_VL(anti-hCD19)-CK gamma molecule (half-molecule) (Artificial Sequence) (light, as listed by the source, chain 2 of 2): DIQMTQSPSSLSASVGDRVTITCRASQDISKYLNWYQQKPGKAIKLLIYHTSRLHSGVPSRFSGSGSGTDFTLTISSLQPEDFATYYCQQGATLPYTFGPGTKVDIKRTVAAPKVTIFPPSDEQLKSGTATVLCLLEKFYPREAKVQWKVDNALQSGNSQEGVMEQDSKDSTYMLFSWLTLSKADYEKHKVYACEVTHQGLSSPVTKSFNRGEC
# Chain of VL-BT beta chain (Artificial Sequence) (chain, as listed by the source): as the sequence (chain, as listed by the source F405A F405A) above, with A293C counted along it
binder,measurement,setting,value
BT alpha His chain (other) DKTHTCPPCPAPELLGGPSVFLFPPKPKDTLMISRTPEVTCVVVDVSHEDPEVKFNWYVDGVEVHNAKTKPREEQYNSTYRVVSVLTVLHQDWLNGKEYKCKVSNKALPAPIEKTISKAKGQPREPQVYTLPPSRDELTKNQVKLVCLVTGFYPSDIAVEWESNGQPENNYYTTPPVLDSDGSFSLVSWLNVDKSRWQQGNVFSCSVMHEALHNHYTQKSLSLSPGKHHHHHH,hetero-dimer percentage of the protein-A purified material,[1],≥ 76.1%
same,hetero-dimer percentage of the protein-A purified material,[2],≥ 51.9%
same,hetero-dimer percentage of the protein-A purified material,[3],≥ 50%
same,hetero-dimer percentage of the protein-A purified material,[4],≥ 80.7%
